We go through 6 molecules from paper PMC7438327 (Cell Death & Disease, 2020).

Test [1] deals with T1, oligomycin sensitivity-conferring protein (OSCP), endogenous in HEK cells (human (endogenous in HEK), UniProt P48047 24-213).
T1 construct: OSCP subunit of the mitochondrial ATP synthase, immunoprecipitated or stained in HEK cell lines; also called OSCP subunit of the ATP synthase; source: endogenous, HEK CypD mutant cell lines
T1 sequence (looked up): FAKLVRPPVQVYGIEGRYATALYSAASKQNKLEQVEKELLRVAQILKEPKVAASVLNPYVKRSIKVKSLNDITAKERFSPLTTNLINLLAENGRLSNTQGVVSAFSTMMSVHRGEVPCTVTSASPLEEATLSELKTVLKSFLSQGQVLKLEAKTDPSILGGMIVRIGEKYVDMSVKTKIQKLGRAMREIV
The test is described as follows: co-IP; OSCP immunoprecipitation in HEK CypD mutant cell lines, immunoblots of CypD and OSCP; quantified as fold vs. WT. The following applies: partners not purified. (In general: In western blotting, separated proteins are transferred to a membrane and probed.)

Test [2] has as its target T2, oligomycin sensitivity-conferring protein (OSCP) tagged with Clover GFP (UniProt P48047 24-213).
T2 construct: OSCP subunit of the mitochondrial ATP synthase; One vector carries OSCP-Clover and, downstream of an IRES, CypD-Scarlet; also called OSCP-Clover; OSCP subunit of the ATP synthase; source: HEK cells, transfected, in cells
T2 sequence (looked up): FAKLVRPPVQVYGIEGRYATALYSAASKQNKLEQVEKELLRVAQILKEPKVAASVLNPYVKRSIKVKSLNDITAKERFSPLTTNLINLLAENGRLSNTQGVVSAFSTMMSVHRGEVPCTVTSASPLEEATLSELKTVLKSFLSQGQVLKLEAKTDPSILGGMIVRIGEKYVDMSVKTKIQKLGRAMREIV
The test is described as follows: FRET or BRET; HEK cells transfected with OSCP-Clover and WT or mutant CypD-Scarlet downstream of an IRES; excitation 458 nm, emission 505-540 nm and 575-620 nm; FRET ratio. The following applies: partners not purified.

B1: cyclophilin D (CypD) WT, rescued in HEK CypD-KO cells (natural protein)
chain: not shown
notes: also called WT group; source: HEK CypD-KO cells (CRISPR/Cas9) rescued with WT CypD, in cells or lysate
Consider B1, for which, in test [1], the “CypD co-immunoprecipitated with OSCP, fold vs. WT” value was 1 fold vs. WT.

B2: cyclophilin D (CypD) phosphomimetic S191E mutant, rescued in HEK CypD-KO cells (natural protein)
chain: not shown
notes: also called phosphomimetic S191E group; source: HEK CypD-KO cells (CRISPR/Cas9) rescued with mutated CypD, in cells or lysate
Regarding B2, in test [1], the “CypD co-immunoprecipitated with OSCP, fold vs. WT” value is 1.48 fold vs. WT.

B3: cyclophilin D (CypD) phosphoresistant S191A mutant, rescued in HEK CypD-KO cells (natural protein)
chain: not shown
notes: also called phosphoresistant S191A group; source: HEK CypD-KO cells (CRISPR/Cas9) rescued with mutated CypD, in cells or lysate
For B3, the “CypD co-immunoprecipitated with OSCP, fold vs. WT” value in test [1] turned out to be 0.65 fold vs. WT.

B4: cyclophilin D (CypD) WT tagged with Scarlet (natural protein)
chain: not shown
notes: also called PPIF; source: HEK cells, transfected, in cells
Take B4: the FRET ratio in test [2] was determined as 1.92.

B5: cyclophilin D (CypD) phosphoresistant S191A mutant tagged with Scarlet (natural protein)
chain: not shown
notes: source: HEK cells, transfected, in cells
Regarding B5, the FRET ratio in test [2] came out at 1.29.

B6: cyclophilin D (CypD) phosphomimetic S191E mutant tagged with Scarlet (natural protein)
chain: not shown
notes: also called phosphomimetic mutant S191E; source: HEK cells, transfected, in cells
As to B6, the FRET ratio in test [2] came to 2.44.
